Key:
[1] = target: ClpC1 (NTD residues 1-156 removed, E284A/E622A/F440A) (Streptomyces hawaiiensis NRRL 15010); test: cryo-EM structure; ClpC1 added to the pre-formed shClpP1P2 complex with fluorescein-labeled casein and ATP; conformations A (2.94 Å) and B (3.0 Å), C1
[2] = target: shClpP2 (first 49 residues removed, S131A) (Streptomyces hawaiiensis NRRL 15010); test: cryo-EM structure; apo shClpP1P2, C7 symmetry imposed, 2.34 Å (free shClpP1P2 particles of the ClpC1 sample; a second reconstruction at 2.88 Å from the shClpP1P2 sample); SEC buffer 20 mM HEPES, 150 mM KCl, 5% glycerol, pH 7.5
[3] = target: shClpP1 (first 29 residues removed, S113A) (Streptomyces hawaiiensis NRRL 15010); test: as above
[4] = target: shClpP1 alone (sample of Fig. S1A) (Streptomyces hawaiiensis NRRL 15010); test: not stated; Fig. S1A (not shown): purified proteins in solution; a shClpP1 sample was also put on cryo-EM grids

In the case of “ClpC1 (NTD residues 1-156 removed, E284A/E622A/F440A) (enzyme)”, the stoichiometry N [1] is reported as 6.
In the case of “shClpP2 (first 49 residues removed, S131A) (enzyme)”, the stoichiometry N [2] is reported as 7.
“shClpP1 (first 29 residues removed, S113A) (enzyme)” gave a stoichiometry N [3] of 7.
“shClpP1 alone (sample of Fig. S1A) (enzyme)” gave a stoichiometry N [4] of 7.

Reference: publication PMC11005422
